Measured values: publication PMC2777425

Target: T1, K752G844 (winged-helix domain) (UniProt Q54324 752-844)
T1 sequence: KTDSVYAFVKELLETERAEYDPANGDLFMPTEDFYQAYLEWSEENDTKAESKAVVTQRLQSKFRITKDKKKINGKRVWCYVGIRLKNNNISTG
Test: fluorescence anisotropy

Binder: TCTTCTGTGCACTCTTC (ssDNA) [17-mer ss]
- apparent K (half saturation): 1600 nM
